According to paper PMC5512577, “PDE6δ-mediated sorting of INPP5E into the cilium is determined by cargo-carrier affinity” (Nature Communications, 2016):
Where two headings read alike, the source gives them in different places.

Assays:
[1] = test system: PDE6δ; assay: Stopped-flow fluorescence polarization kinetics of mantGppNHp-loaded Arl proteins with PDE6δ; type: binding; settings: for association rate constant kon with PDE6δ: 0.2 μM mantGppNHp-loaded Arl protein, increasing PDE6δ; for association rate constant kon with PDE6δ / dissociation rate constant koff from PDE6δ: 20 °C; for association rate constant kon with PDE6δ / dissociation rate constant koff from PDE6δ / Kd: n=4; for dissociation rate constant koff from PDE6δ: 2 μM PDE6δ with 0.2 μM mantGppNHp-loaded Arl protein, 200-fold excess unlabelled Arl protein; for Kd: calculated from kinetic constants, ± s.d., read-out: equilibrium dissociation constant Kd with PDE6δ (Kd=koff/kon)
Protocol: Previously we have shown that the N-terminal helix of Arl3 is important to release myristoylated cargo from a complex with the shuttle factor UNC119 (ref. [30]). To find out whether the N-terminus of Arl3 and/or Arl2 has a similar if any role in the interaction with PDE6δ, fluorescence polarization measurements using full-length Arl3 (Arl3^fl) or an N-terminal truncated form (Arl3^ΔN) were performed. […] To investigate the role of the N-terminal helix of Arl3 in the release mechanism, we measured association and dissociation rate constants to determine the affinity of PDE6δ towards Arl2 and Arl3 in both full-length and N-terminal truncated forms. Association rate constants between the four proteins Arl3^fl, Arl3^ΔN, Arl2^fl and Arl2^ΔN are rather similar although association is almost twice as fast for full-length Arl3 as compared with Arl2 (Fig. 3a,b). […] The Kd values for Arl2^fl and Arl3^fl differ from previously determined values, likely because of the different techniques used.
Figure 3 Contribution of the N-terminal helix of Arl3 to the binding affinity with PDE6δ. (a) Stopped-flow fluorescence polarization kinetic measurements of the association of 0.2 μM mantGppNHp loaded Arl proteins with increasing concentrations of PDE6δ. The observed pseudo-first order rate constants (kobs) are plotted against PDE6δ concentration. (b) Bar charts of the association rate constants (kon) determined in a. (c,d) Stopped-flow fluorescence polarization kinetic experiments where complexes of 2 μM PDE6δ with 0.2 μM of full-length (Arl^fl) or N-terminally deleted (Arl^ΔN) mantGppNHp loaded Arl proteins as indicated were mixed with 200-fold excess of unlabelled Arl proteins to determine koff. (e) Bar charts of the dissociation rate constants (koff) from experiments in c,d. (f) Bar charts of the equilibrium dissociation constants (Kd) of complexes between PDE6δ and Arl proteins as determined from the kinetic constants in c,e. Error bars indicate s.d., n=4. TEXT PRINTED IN THE PICTURE: (b) Arl3^fl: kon (μM^-1s^-1): 5.97 | (b) Arl3^ΔN: kon (μM^-1s^-1): 4.25 | (b) Arl2^fl: kon (μM^-1s^-1): 2.25 | (b) Arl2^ΔN: kon (μM^-1s^-1): 3.09 | (e) Arl3^fl: koff (s^-1): 0.035 | (e) Arl3^ΔN: koff (s^-1): 0.92 | (e) Arl2^fl: koff (s^-1): 0.33 | (e) Arl2^ΔN: koff (s^-1): 0.98 | (f) Arl3^fl: kd (nM): 5.84 | (f) Arl3^ΔN: kd (nM): 217 | (f) Arl2^fl: kd (nM): 149 | (f) Arl2^ΔN: kd (nM): 319
All fluorescence polarization measurements were performed at 20 °C in a buffer containing 25 mM Tris-HCl (pH 7.5), 50 mM NaCl and 3 mM DTE. For the titration measurement, data were recorded with Fluoromax-4 spectrophotometer (HORIBA Jobin Yvon, Munich, Germany) with excitation and emission wavelengths at 530 and 580 nm for TAMRA-labelled INPP5E peptide and at 495 and 520 nm for fluorescein-labelled Rheb peptide. The kinetic measurements were monitored by a stopped-flow apparatus (Applied Photophysics) in the polarization mode using an excitation wavelength of 366 nm and filter with 420 nm cutoff for mantGppNHp bound Arl protein, excitation wavelength of 495 nm and filter with 520 nm cutoff for fluorescein-labelled Rheb peptide and excitation wavelength of 530 nm and filter with 570 nm cutoff for TAMRA-labelled INPP5E peptide. Data analysis was done with GraFit 5.0 program (Erithracus Software). Concentrations used for each experiment are indicated in the corresponding figure legend.

[2] = test system: GST-PDE6δ; assay: GST-PDE6δ pull-down and release by Arl2/Arl3 from IMCD3 lysates; type: binding; settings: 20 μM GST-PDE6δ on GSH-beads, 20 μM Arl2 or Arl3, 1 h 4 °C, anti-GFP immunoblot
Protocol: Figure 5 INPP5E ciliary enrichment is dependent on high affinity to PDE6δ. […] White bar indicates 5 μm. (b) Bar chart showing ratio of GFP intensity in cilia to the total GFP intensity, indicating the enrichment of GFP-tagged protein in cilia. […] Error bars indicate s.d., n≥35 (P<0.05; Student’s t-test). […] Formed complexes in the pulldown experiment were incubated with Arl2 or Arl3 as indicated. The amount of GFP-tagged interacting proteins bound to GST-PDE6δ was detected by immunoblotting with an antibody against GFP.
IMCD3 cells stably expressing GFP-INPP5E(WT) or GFP-INPP5E(KS) were lysed in lysis buffer containing 75 mM Hepes pH 7.5, 150 mM KCl, 1.5 mM EGTA, 1.5 mM MgCl2, 15% glycerol, 0.2% NP-40 and one protease inhibitor cocktail tablet (Roche). Cell lysates were cleared and supernatants were incubated for 1 h at 4 °C with 100 μl GSH-beads conjugated with 20 μM GST-PDE6δ. For the release assay, 20 μM of either Arl2 or Arl3 were added to the previous mixture and incubated for further 1 h at 4 °C. After 5 times washing with the lysis buffer, the complexes were analysed by western blotting using anti-GFP antibody (1:500; Santa Cruz Biotechnology sc-9996) and anti GST (1:5,000; home source). Full scans of western blots are provided in Supplementary Fig. 6.

Kd ([1]; listed as Arl2^ΔN) [nM]	Kd [1] [nM]	Molecule	difference in koff / residence time with PDE6δ, full-length versus N-terminally deleted form [1]	association rate constant kon with PDE6δ [1] [M⁻¹ s⁻¹]	association rate constant kon with PDE6δ ([1]; listed as Arl2^ΔN) [M⁻¹ s⁻¹]	dissociation rate constant koff from PDE6δ [1] [s⁻¹]	dissociation rate constant koff from PDE6δ ([1]; listed as Arl2^ΔN) [s⁻¹]	release from GST-PDE6δ by Arl2·GppNHp / Arl3·GppNHp [2]
316 ± 6.3	149 ± 19	Arl2^fl: full-length Arl2, mantGppNHp loaded (protein, left off: His tag, C-terminal, state not stated, full-length Arl2, mantGppNHp loaded) MGLLTILKKMKQKERELRLLMLGLDNAGKTTILKKFNGEDVDTISPTLGFNIKTLEHRGFKLNIWDVGGQKSLRSYWRNYFESTDGLIWVVDSADRQRMQDCQRELQSLLVEERLAGATLLIFANKQDLPGALSCNAIQEALELDSIRSHHWRIQGCSAVTGEDLLPGIDWLLDDISSRVFTAD	threefold	2.25e+06	3.09e+06	0.33	0.98	
		INPP5E(KS) mutant: GFP-tagged INPP5E S641K/V643S protein stably expressed in IMCD3 cells (protein, left off: LAP tag (GFP-TEV-site-S-peptide), N-terminal, kept, GFP-tagged INPP5E S641K/V643S protein stably expressed in IMCD3 cells) MPSKSACLRHTEAPGQLEGRMLQGQPPNTEKKLIPTPGFLPASDSQGSETNPMPPFSIPAKTSNQNPQTKANLITPQPPIRPKLERTLSLDDKGWRRRRFRGSQEDLTVQNGASPCRGSLQDSVAQSPAYSRPLPCLSTSLQEIPKSRRATGSEGGSPSLWSDCLSGMISTSLDLLHRDAASGGPPSRLASLHASHTPPAMDLSIASSSLRTANKVDPEHTDYKLRMQTRLVRAHSNLGPSRPRSPLAGDDHSIHSARSFSLLAPIRTKDIRSRSYLEGSLLASGALLGAEELARYFPDRNMALFVATWNMQGQKELPASLDEFLLPTEADYTQDLYVIGIQEGCSDRREWETRLQETLGPQYVLLSSAAHGVLYMSLFIRRDLIWFCSEVEYSTVTTRIVSQIKTKGALGVSFTFFGTSFLFITSHFTSGDGKVAERLLDYSRTIQALALPRNVPDTNPYRSSAGDVTTRFDEVFWFGDFNFRLSGGRVAVEAFLKQKPEVDVLALLQHDQLTREMKKGSIFRGFEEAEIHFLPSYKFDIGKDTYDSTSKQRTPSYTDRVLYKSRHKGDICPMKYSSCPGIKTSDHRPVYGLFQVKVRPGRDNIPLAAGKFDRELYLIGIKRRISKEIQRQEALKSQSSKASCTVS						can indeed be released by both Arl2·GppNHp and Arl3·GppNHp
		INPP5E(WT): GFP (LAP)-tagged mouse INPP5E stably expressed in IMCD3 cells (protein, left off: LAP tag (GFP-TEV-site-S-peptide), N-terminal, kept, GFP (LAP)-tagged mouse INPP5E stably expressed in IMCD3 cells) MPSKSACLRHTEAPGQLEGRMLQGQPPNTEKKLIPTPGFLPASDSQGSETNPMPPFSIPAKTSNQNPQTKANLITPQPPIRPKLERTLSLDDKGWRRRRFRGSQEDLTVQNGASPCRGSLQDSVAQSPAYSRPLPCLSTSLQEIPKSRRATGSEGGSPSLWSDCLSGMISTSLDLLHRDAASGGPPSRLASLHASHTPPAMDLSIASSSLRTANKVDPEHTDYKLRMQTRLVRAHSNLGPSRPRSPLAGDDHSIHSARSFSLLAPIRTKDIRSRSYLEGSLLASGALLGAEELARYFPDRNMALFVATWNMQGQKELPASLDEFLLPTEADYTQDLYVIGIQEGCSDRREWETRLQETLGPQYVLLSSAAHGVLYMSLFIRRDLIWFCSEVEYSTVTTRIVSQIKTKGALGVSFTFFGTSFLFITSHFTSGDGKVAERLLDYSRTIQALALPRNVPDTNPYRSSAGDVTTRFDEVFWFGDFNFRLSGGRVAVEAFLKQKPEVDVLALLQHDQLTREMKKGSIFRGFEEAEIHFLPSYKFDIGKDTYDSTSKQRTPSYTDRVLYKSRHKGDICPMKYSSCPGIKTSDHRPVYGLFQVKVRPGRDNIPLAAGKFDRELYLIGIKRRISKEIQRQEALKSQSSSAVC						specifically released only by Arl3·GppNHp
